From patent US20190038707A1

Key:
[1] = biological target: HCN channels (mediating Ih) in CA1 pyramidal neurons of TRIP8b KO mice; test: cell-based or functional assay
[2] = biological target: HCN1, hyperpolarization-activated cyclic nucleotide-gated channel pore-forming subunit 1, endogenous in CA1 pyramidal neurons of TRIP8b KO mice (mouse) (UniProt O88704); test: cell-based or functional assay
UniProt O88704, sequence (O88704 whole entry): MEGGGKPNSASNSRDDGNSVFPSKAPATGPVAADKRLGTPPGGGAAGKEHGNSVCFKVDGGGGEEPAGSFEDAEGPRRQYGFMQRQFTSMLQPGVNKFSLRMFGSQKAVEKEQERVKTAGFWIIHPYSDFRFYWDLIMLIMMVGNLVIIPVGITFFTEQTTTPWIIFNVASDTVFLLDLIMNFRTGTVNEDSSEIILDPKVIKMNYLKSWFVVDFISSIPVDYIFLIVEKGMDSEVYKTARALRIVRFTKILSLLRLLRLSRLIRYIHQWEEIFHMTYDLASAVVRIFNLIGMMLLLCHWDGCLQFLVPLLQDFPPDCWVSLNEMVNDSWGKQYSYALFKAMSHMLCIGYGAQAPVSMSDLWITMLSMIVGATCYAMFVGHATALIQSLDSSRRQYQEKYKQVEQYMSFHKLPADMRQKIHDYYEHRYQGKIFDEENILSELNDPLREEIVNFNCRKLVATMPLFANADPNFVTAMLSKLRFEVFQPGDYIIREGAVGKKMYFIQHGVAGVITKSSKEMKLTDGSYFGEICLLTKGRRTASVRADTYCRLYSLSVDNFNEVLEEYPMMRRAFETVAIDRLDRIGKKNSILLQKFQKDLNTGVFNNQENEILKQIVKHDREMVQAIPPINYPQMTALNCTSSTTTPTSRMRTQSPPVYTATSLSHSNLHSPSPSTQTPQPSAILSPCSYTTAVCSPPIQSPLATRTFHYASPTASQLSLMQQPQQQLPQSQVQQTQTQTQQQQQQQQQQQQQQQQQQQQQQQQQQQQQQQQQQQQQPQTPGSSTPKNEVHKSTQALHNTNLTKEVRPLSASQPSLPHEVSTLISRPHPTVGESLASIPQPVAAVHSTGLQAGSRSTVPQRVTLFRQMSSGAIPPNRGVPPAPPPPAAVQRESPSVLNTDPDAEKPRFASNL

| Ih amplitude, voltage clamp, TRIP8b KO mice [1] [pA/pF] | sag ratio, somatic whole cell recordings, TRIP8b KO mice [1] | HCN1 staining in the SLM layer of CA1, injected hemisphere scaled by contralateral hemisphere (immunohistochemistry) (fold of uninjected hemisphere) [2] | Ih amplitude, somatic voltage clamp recordings, TRIP8b KO mice [1] [pA/pF] | sag ratio (ΔVmax/ΔVsteady-state), whole cell recordings from eGFP positive CA1 pyramidal neurons of TRIP8b KO mice [1] | HCN1 staining in the SLM of CA1, injected hemisphere relative to uninjected hemisphere (immunohistochemistry) (fold of uninjected hemisphere) [2] | Substance |
| --- | --- | --- | --- | --- | --- | --- |
| 0.282 | 1.11 | 0.78 |  |  |  | TRIP8b(1a-4)(TPR3-N13A), expressed from AAV-TRIP8b(N13A) |
| 0.27 | 1.09 | 0.98 |  |  |  | TRIP8b(1a-4)(Δ58), expressed from AAV-TRIP8b(Δ58) |
|  |  |  | 0.68 | 1.27 | 1.52 | TRIP8b(1a-4), tetratricopeptide repeat-containing Rab8b interacting protein, isoform comprised of exons 1a, 4 and 5-16, wild type, expressed from AAV-TRIP8b-IRES-eGFP |
|  |  | 0.99 |  |  |  | TRIP8b(Δ58/N13A) double mutant, expressed from AAV-TRIP8b(Δ58/N13A) |
